Results on one molecule are retold here after article PMC7718258.

This assay addresses Methanocaldococcus jannaschii Bud32 (Methanocaldococcus jannaschii) (UniProt Q58530).

Methanocaldococcus jannaschii Bud32 (Methanocaldococcus jannaschii), sequence (Q58530 whole entry): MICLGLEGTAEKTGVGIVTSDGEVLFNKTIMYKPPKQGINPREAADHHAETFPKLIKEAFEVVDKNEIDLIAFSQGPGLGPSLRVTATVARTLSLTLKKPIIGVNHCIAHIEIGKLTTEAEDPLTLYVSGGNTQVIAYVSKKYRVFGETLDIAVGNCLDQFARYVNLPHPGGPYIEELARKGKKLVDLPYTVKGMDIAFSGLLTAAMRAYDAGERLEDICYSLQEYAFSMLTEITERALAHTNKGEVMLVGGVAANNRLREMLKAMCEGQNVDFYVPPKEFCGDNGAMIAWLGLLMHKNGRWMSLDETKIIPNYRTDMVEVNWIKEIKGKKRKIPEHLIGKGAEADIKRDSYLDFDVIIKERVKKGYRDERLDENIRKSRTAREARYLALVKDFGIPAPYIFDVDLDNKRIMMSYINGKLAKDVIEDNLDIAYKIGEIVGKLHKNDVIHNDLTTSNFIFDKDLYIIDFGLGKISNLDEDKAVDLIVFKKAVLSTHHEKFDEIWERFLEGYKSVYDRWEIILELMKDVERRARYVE

B1: Methanocaldococcus jannaschii Cgi121 (natural protein)
chain: MIIRGIRGARINNEIFNLGLKFQILNADVVATKKHVLHAINQAKTKKPIAKSFWMEILVRASGQRQIHEAIKIIGAKDGNVCLICEDEETFRKIYELIGGEIDDSVLEINEDKERLIREIFKIRGFGNVVERVLEKIALIELKKE
On to B1, for which the ATPase activity of mjBud32 (ADP Glo assay), potentiation by mjCgi121 came out at 10 fold.
